Experimental data: doi:10.1101/2025.06.05.658000 (2025)
Read-outs that look alike come from different tables or passages of the source. No end group written: not given here. *: point of attachment. Biotin = O=C1N[C@H]2[C@H](CS[C@H]2CCCCC(=O)*)N1; Ahx = NCCCCCC(=O)O

Columns and labels:
Assay in all cases: ELISA
[1] = target: HLA-DR (DRA1*01:01 / DRB1*13:02), soluble knob-into-hole Fc heterodimer (human)
[2] = target: HLA-DR (DRA1*01:01 / DRB1*14:01), soluble knob-into-hole Fc heterodimer (human)
[3] = target: HLA-DR (DRA1*01:01 / DRB1*12:02), soluble knob-into-hole Fc heterodimer (human)
[4] = target: HLA-DR (DRA1*01:01 / DRB1*11:01), soluble knob-into-hole Fc heterodimer (human)
[5] = target: HLA-DR (DRA1*01:01 / DRB1*04:03), soluble knob-into-hole Fc heterodimer (human)
[6] = target: HLA-DR (DRA1*01:01 / DRB1*13:01), soluble knob-into-hole Fc heterodimer (human)
[7] = target: HLA-DR (DRA1*01:01 / DRB1*15:03), soluble knob-into-hole Fc heterodimer (human)
[8] = target: HLA-DR (DRA1*01:01 / DRB1*04:06), soluble knob-into-hole Fc heterodimer (human)
[9] = target: HLA-DR (DRA1*01:01 / DRB1*03:01), soluble knob-into-hole Fc heterodimer (human)
[10] = target: HLA-DR (DRA1*01:01 / DRB1*09:01), soluble knob-into-hole Fc heterodimer (human)
[11] = target: HLA-DR (DRA1*01:01 / DRB1*04:07), soluble knob-into-hole Fc heterodimer (human)
[12] = target: T1, HLA-DR (DRA1*01:01 / DRB1*12:01), soluble knob-into-hole Fc heterodimer (human)
[13] = target: HLA-DR (DRA1*01:01 / DRB1*11:04), soluble knob-into-hole Fc heterodimer (human)
[14] = target: HLA-DR (DRA1*01:01 / DRB1*16:02), soluble knob-into-hole Fc heterodimer (human)
[15] = target: HLA-DR (DRA1*01:01 / DRB1*14:54), soluble knob-into-hole Fc heterodimer (human)
[16] = target: HLA-DR (DRA1*01:01 / DRB1*01:02), soluble knob-into-hole Fc heterodimer (human)
[17] = target: HLA-DR (DRA1*01:01 / DRB1*04:04), soluble knob-into-hole Fc heterodimer (human)
[18] = target: HLA-DR (DRA1*01:01 / DRB1*01:01), soluble knob-into-hole Fc heterodimer (human)
[19] = target: T2, HLA-DR (DRA1*01:01 / DRB1*07:01), soluble knob-into-hole Fc heterodimer (human)
[20] = target: HLA-DR (DRA1*01:01 / DRB1*04:01), soluble knob-into-hole Fc heterodimer (human)
[21] = target: HLA-DR (DRA1*01:01 / DRB1*15:01), soluble knob-into-hole Fc heterodimer (human)
[22] = target: HLA-DR (DRA1*01:01 / DRB1*10:01), soluble knob-into-hole Fc heterodimer (human)
[23] = target: HLA-DR (DRA1*01:01 / DRB1*15:02), soluble knob-into-hole Fc heterodimer (human)
[24] = target: HLA-DR (DRA1*01:01 / DRB1*04:05), soluble knob-into-hole Fc heterodimer (human)
[25] = target: T2, HLA-DR (DRA1*01:01 / DRB1*07:01), …; remark: listed apart in the source
[26] = target: T1, HLA-DR (DRA1*01:01 / DRB1*12:01), …; remark: listed apart in the source

Binder KPVSKMRMATPLLMQALPM (also: biotin-labeled) has a Kd [1] of 4.13 µM, a Kd [2] of 9.17 nM and a Kd [3] of 1.27 nM. For the same binder, the Kd [4] was 12 nM, the Kd [5] was 2.32 nM and the Kd [6] was 315 nM. For the same binder, the Kd [7] was 5.31 nM, the Kd [8] was 2.63 nM and the Kd [9] was 15.1 nM. It also gave a Kd [10] of 0.576 nM, a Kd [11] of 2.76 nM and a Kd [12] of 22.9 nM. It also gave a Kd [13] of 4.54 nM, a Kd [14] of 8.67 nM and a Kd [15] of 3.35 nM. It also gave a Kd [16] of 1.78 nM and a Kd [17] of 2.7 nM.

{Biotin-Ahx}-KPVSKMRMATPLLMQALPM showed a Kd [18] of 1.83 nM, a Kd [19] of 4.09 nM and a Kd [20] of 2.35 nM. For the same binder, the Kd [21] was 2.13 nM, the Kd [22] was 1.27 nM and the Kd [23] was 8.75 nM. The Kd [24] was 14.9 nM.

VVLSFELLHAPATVC [SARS-CoV-2 RBD peptide RBD511-525] was tested, and the Kd [25] was 263 nM and the Kd [26] was 631 nM.

With VEGFNCYFPLQSYGF [SARS-CoV-2 RBD peptide RBD483-497] the Kd [25] was 173 nM and the Kd [26] was 439 nM.

ADYNYKLPDDFTGCV [SARS-CoV-2 RBD peptide RBD419-433] gave a Kd [25] greater than 10000 nM and a Kd [26] greater than 10000 nM.

In the case of GNYNYLYRLFRKSNL [SARS-CoV-2 RBD peptide RBD447-461, wildtype strain], the Kd [25] is reported as 163 nM and the Kd [26] is reported as 229 nM.

TESIVRFPNITNLCP [SARS-CoV-2 RBD peptide RBD323-337] gave a Kd [25] of 435 nM and a Kd [26] of 4930 nM.
